Data reported in publication PMC7504102.

Target: StrepHA-SGFP2 (control)
Assay: co-IP; co-IP/HiBiT assay: SGFP2-fused proteins immunoprecipitated with anti-GFP pAb from HEK293 or HEK293 ALG-2KO lysates (with or without co-expressed FLAG-ALG-2); HKM, 1% Nonidet P-40, 10 mM NEM, 10 μM CaCl2; co-precipitated HiBiTHA-SARAF read by lytic HiBiT assay with LgBiT, normalised by …

relative interaction activity (WT expressed as 100%): < 0.3%
B1: full-length HiBiTHA-SARAF (WT) (natural protein)
chain: WNDPDRMLLRDVKALTLHYDRYTTSRRLDPIPQLKCVGGTAGCDSYTPKVIQCQNKGWDGYDVQWECKTDLDIAYKFGKTVVSCEGYESSEDQYVLRGSCGLEYNLDYTELGLQKLKESGKQHGFASFSDYYYKWSSADSCNMSGLITIVVLLGIAFVVYKLFLSDGQYSPPPYSEYPPFSHRYQRFTNSAGPPPPGFKSEFTGPQNTGHGATSGFGSAFTGQQGYENSGPGFWTGLGTGGILGYLFGSNRAATPFSDSWYYPSYPPSYPGTWNRAYSPLHGGSGSYSVCSNSDTKTRTASGYGGTRRR
